For 1 substance, Kd results are on record in doi:10.1101/2021.10.28.465226.

pKd: −log10 of the molar value.

The target in the assay is SARS-CoV-2 spike heptad repeat 1 (HR1) with C-terminal poly-his tag (SARS-CoV-2). The assay is described as follows: SPR. For orientation: SPR reads the build-up and loss of mass on a sensor chip optically.

Consider “SARS-CoV-2 spike heptad repeat 2 (HR2) peptide”, for which the pKd (commonly −log10 of the Kd, conventionally taken in molar units) is 8.65.
